Patent US20120316071A1

Experiments:
[1] = molecular target: human Delta-like ligand 4 (DLL4), full-length, expressed on CHO cells (human) (UniProt Q9NR61); assay: cell-based or functional assay
[2] = molecular target: Recombinant Human DLL4 (delta-like protein 4) (human) (UniProt Q9NR61); assay: ELISA, DLL4 coated on plate, Fab at 25 nM (2-fold dilution series), absorbance at 450 nm
[3] = molecular target: Recombinant Human DLL4 (delta-like protein 4) (human) (UniProt Q9NR61); assay: ELISA, DLL4 coated on plate, Fab at 50 nM (2-fold dilution series), absorbance at 450 nm
[4] = molecular target: Recombinant Human DLL4 (delta-like protein 4) (human) (UniProt Q9NR61); assay: ELISA, DLL4 coated on plate, Fab at 12.5 nM (2-fold dilution series), absorbance at 450 nm
[5] = molecular target: Recombinant Human DLL4 (delta-like protein 4) (human) (UniProt Q9NR61); assay: ELISA, DLL4 coated on plate, Fab at 100 nM (2-fold dilution series), absorbance at 450 nm

| ELISA signal [2] | ELISA signal [3] | ELISA signal [4] | ELISA signal [5] | Binder | further results |
| --- | --- | --- | --- | --- | --- |
|  |  |  |  | Fab VH6-1_IGHD6-13*01_IGHJ4*01 and V2-17_IGLJ2*01 (Fab, V domains shown) VH: QVQLQQSGPGLVKPSQTLSLTCAISGDSVSSNSAAWNWIRQSPSRGLEWLGRTYYRSKWYNDYAVSVKSRITINPDTSKNQFSLQLNSVTPEDTAVYYCAREGYSSSWYDYFDYWGQGTLVTVSS VL: SYELTQPPSVSVSPGQTARITCSGDALPKQYAYWYQQKPGQAPVLVIYKDSERPSGIPERFSGSSSGTTVTLTISGVQAEDEADYYCQSADSSGTYPVVFGGGTKLTVL | Notch1 luciferase reporter luminescence, T98G reporter cells + CHO-DLL4, 0.8 nM Fab, replicate 1 [1]: 4480; Notch1 luciferase reporter luminescence, T98G reporter cells + CHO-DLL4, 0.8 nM Fab, replicate 2 [1]: 4540; Notch1 luciferase reporter luminescence, T98G reporter cells + CHO-DLL4, 0.8 nM Fab, replicate 3 [1]: 3910; Notch1 luciferase reporter luminescence, T98G reporter cells + CHO-DLL4, 0.8 nM Fab, replicate 4 [1]: 4220; Notch1 luciferase reporter luminescence, T98G reporter cells + CHO-DLL4, 4 nM Fab, replicate 1 [1]: 4810; Notch1 luciferase reporter luminescence, T98G reporter cells + CHO-DLL4, 4 nM Fab, replicate 2 [1]: 4920; Notch1 luciferase reporter luminescence, T98G reporter cells + CHO-DLL4, 4 nM Fab, replicate 3 [1]: 4190; Notch1 luciferase reporter luminescence, T98G reporter cells + CHO-DLL4, 4 nM Fab, replicate 4 [1]: 4520; Notch1 luciferase reporter luminescence, T98G reporter cells + CHO-DLL4, 20 nM Fab, replicate 1 [1]: 5400; Notch1 luciferase reporter luminescence, T98G reporter cells + CHO-DLL4, 20 nM Fab, replicate 2 [1]: 4990; Notch1 luciferase reporter luminescence, T98G reporter cells + CHO-DLL4, 20 nM Fab, replicate 3 [1]: 4320; Notch1 luciferase reporter luminescence, T98G reporter cells + CHO-DLL4, 20 nM Fab, replicate 4 [1]: 4550; Notch1 luciferase reporter luminescence, T98G reporter cells + CHO-DLL4, 100 nM Fab, replicate 1 [1]: 4820; Notch1 luciferase reporter luminescence, T98G reporter cells + CHO-DLL4, 100 nM Fab, replicate 2 [1]: 4810; Notch1 luciferase reporter luminescence, T98G reporter cells + CHO-DLL4, 100 nM Fab, replicate 3 [1]: 4030; Notch1 luciferase reporter luminescence, T98G reporter cells + CHO-DLL4, 100 nM Fab, replicate 4 [1]: 4470 |
| 0.19 | 0.2 | 0.21 | 0.23 | Fab VH5-51_IGHD5-18*01>3_IGHJ4*01 G100K/G104T G24L/S28R/G35V Y105H & V3-4_IGLJ1*01 (wildtype) (Fab, V domains shown) VH: EVQLVQSGAEVKKPGESLKISCKTSGYRFTSYWIVWVRQMPGKGLEWMGIIYPGDSDTRYSPSFQGQVTISADKSISTAYLQWSSLKASDTAMYYCARRKYSYTHDYFDYWGQGTLVTVSS VL: QTVVTQEPSFSVSPGGTVTLTCGLSSGSVSTSYYPSWYQQTPGQAPRTLIYSTNTRSSGVPDRFSGSILGNKAALTITGAQADDESDYYCVLYMGSGISYVFGTGTKVTVL |  |
| 0.22 | 0.25 | 0.24 | 0.3 | Fab VH5-51_IGHD5-18*01>3_IGHJ4*01 G100K/G104T G24L/S28R/G35V D109Q & V3-4_IGLJ1*01 (wildtype) (Fab, V domains shown) VH: EVQLVQSGAEVKKPGESLKISCKTSGYRFTSYWIVWVRQMPGKGLEWMGIIYPGDSDTRYSPSFQGQVTISADKSISTAYLQWSSLKASDTAMYYCARRKYSYTYDYFQYWGQGTLVTVSS VL: QTVVTQEPSFSVSPGGTVTLTCGLSSGSVSTSYYPSWYQQTPGQAPRTLIYSTNTRSSGVPDRFSGSILGNKAALTITGAQADDESDYYCVLYMGSGISYVFGTGTKVTVL |  |
| 0.19 | 0.18 | 0.21 | 0.25 | Fab VH5-51_IGHD5-18*01>3_IGHJ4*01 G100K/G104T G24T/S28R/G35V Y105N & V3-4_IGLJ1*01 (wildtype) (Fab, V domains shown) VH: EVQLVQSGAEVKKPGESLKISCKTSGYRFTSYWIVWVRQMPGKGLEWMGIIYPGDSDTRYSPSFQGQVTISADKSISTAYLQWSSLKASDTAMYYCARRKYSYTNDYFDYWGQGTLVTVSS VL: QTVVTQEPSFSVSPGGTVTLTCGLSSGSVSTSYYPSWYQQTPGQAPRTLIYSTNTRSSGVPDRFSGSILGNKAALTITGAQADDESDYYCVLYMGSGISYVFGTGTKVTVL |  |
| 0.2 | 0.24 | 0.21 | 0.28 | Fab VH5-51_IGHD5-18*01>3_IGHJ4*01 G100K/G104T G24A/S28R/G35V Y107F & V3-4_IGLJ1*01 (wildtype) (Fab, V domains shown) VH: EVQLVQSGAEVKKPGESLKISCKTSGYRFTSYWIVWVRQMPGKGLEWMGIIYPGDSDTRYSPSFQGQVTISADKSISTAYLQWSSLKASDTAMYYCARRKYSYTYDFFDYWGQGTLVTVSS VL: QTVVTQEPSFSVSPGGTVTLTCGLSSGSVSTSYYPSWYQQTPGQAPRTLIYSTNTRSSGVPDRFSGSILGNKAALTITGAQADDESDYYCVLYMGSGISYVFGTGTKVTVL |  |
